# The RNAGym collection of RNA variant scans (doi:10.7554/elife.90254)
# B1: LINE1-full (parent)
# chain: UACGUAGGUGGUUUUCCCCUGAUAGUGCUAAGGGGGCCUGGAAGUUUGGACUGGGCAGAGCUCAACACAGCGUGGCAAAGUGGCUGUGGCUAGACUGCCUCUCUGGAUUCCUCGUCACUCAGCAGGGCAUCUCUGAGAGAAAUGCC
# Variants of: B1
# Experiment: self-cleavage, relative activity (ratio to wild type); higher = more cleavage; in vitro, sequencing; the parent is a self-cleaving ribozyme
row,Variant,self-cleavage
1,UACGUAGGUGGGUUUCCCCUGAUAGUGCUAAGGGGGCCUGGAAGUUUGGACUGGGCAGAGCUCAACACAGCGUGGCAAAGUGGCUGUGGCUAGACUGCCUCUCUGGAUUCCUCGUCACUCAGCAGGGCAUCUCUGAGAGGAAUGCC [U12G A140G],0.91
2,UACGUAGGUGGGUUUCCCCUGAUAGUGCUAAGGGGGCCUGGAAGUUUGGACUGGGCAGAGCUCAACACAGCGUGGCAAAGUGGCUGUGGCUAGACUGCCUCUCUGGAUUCCUCGUCACUCAGCAGGGCAUCUCUGAGAGCAAUGCC [U12G A140C],0.48
3,UACGUAGGUGGGUUUCCCCUGAUAGUGCUAAGGGGGCCUGGAAGUUUGGACUGGGCAGAGCUCAACACAGCGUGGCAAAGUGGCUGUGGCUAGACUGCCUCUCUGGAUUCCUCGUCACUCAGCAGGGCAUCUCUGAGAAAAAUGCC [U12G G139A],0.95
4,UACGUAGGUGGGUUUCCCCUGAUAGUGCUAAGGGGGCCUGGAAGUUUGGACUGGGCAGAGCUCAACACAGCGUGGCAAAGUGGCUGUGGCUAGACUGCCUCUCUGGAUUCCUCGUCACUCAGCAGGGCAUCUCUGAGGGAAAUGCC [U12G A138G],1.29
5,UACGUAGGUGGGUUUCCCCUGAUAGUGCUAAGGGGGCCUGGAAGUUUGGACUGGGCAGAGCUCAACACAACGUGGCAAAGUGGCUGUGGCUAGACUGCCUCUCUGGAUUCCUCGUCACUCAGCAGGGCAUCUCUGAGAGAAAUGCC [U12G G70A],0.07
6,UACGUAGGUGGGUUUCCCCUGAUAGUGCUAAGGGGGCCUGGAAGUUUGGACUGGGCAGAGCUCAACACAGCGUGGCAAAGUGGCUGUGGCUAGACUGCCUCUCUGGAUUCCUCGUCACUCCGCAGGGCAUCUCUGAGAGAAAUGCC [U12G A121C],1.29
7,UACGUAGGUGGGUUUCCCCUGAUAGUGCUAAGGGGGCCUGGAAGUUUGGACUGGGCAGAGCUCAACACAGCGUGGCAAAGUGGCUGUGGCUAGACUGCCUCUCUGGAUUCCUCGUCACUCGGCAGGGCAUCUCUGAGAGAAAUGCC [U12G A121G],1.4
8,UACGUAGGUGGGUUUCCCCUGAUAGUGCUAAGGGGGCCUGGAAGUUUGGACUGGGCAGAGCUCAACACAGCGUGGCAAUGUGGCUGUGGCUAGACUGCCUCUCUGGAUUCCUCGUCACUCAGCAGGGCAUCUCUGAGAGAAAUGCC [U12G A79U],1.3
9,UACGUAGGUGGGUUUCCCCUAAUAGUGCUAAGGGGGCCUGGAAGUUUGGACUGGGCAGAGCUCAACACAGCGUGGCAAAGUGGCUGUGGCUAGACUGCCUCUCUGGAUUCCUCGUCACUCAGCAGGGCAUCUCUGAGAGAAAUGCC [U12G G21A],1.19
10,UACGUAGGUGGGUUUCCCCUGAUAGUGCUAAGGGGGCCUGGAAGUUUGGACUGGGCAGAGCUCAACACAGCGUGGCAGAGUGGCUGUGGCUAGACUGCCUCUCUGGAUUCCUCGUCACUCAGCAGGGCAUCUCUGAGAGAAAUGCC [U12G A78G],0
11,UACGUAGGUGGGUUUCCCCUGAUAGUGCUAAGGGGGCCUGGAAGUUUGGACUGGGCAGAGCUCAACACGGCGUGGCAAAGUGGCUGUGGCUAGACUGCCUCUCUGGAUUCCUCGUCACUCAGCAGGGCAUCUCUGAGAGAAAUGCC [U12G A69G],0.77
12,UACGUAGGUGGGUUUCCCCUGAUAGUGCUAAGGGGGCCUGGAAGUUUGGACUGGGCAAAGCUCAACACAGCGUGGCAAAGUGGCUGUGGCUAGACUGCCUCUCUGGAUUCCUCGUCACUCAGCAGGGCAUCUCUGAGAGAAAUGCC [U12G G58A],0.11
13,UACGUAGGUGGGUUUCCCCUGAUAGUGCUAAGGGGGCCUGGAAGUUUGGACUGGGCAGAGCUCAACACAGCGUGGCAAAGUGGCUGUGGCUAGACUGCCUCUCUGGAUUCCUCGUCACUCAGCGGGGCAUCUCUGAGAGAAAUGCC [U12G A124G],0.84
14,UACGUAGGUGGGUUUCCCCUGAUAGUGCUAAGGGGGCCUGGAAGUUUGGACUGGGCAGAGCUCAACACAGCGUGGCAAAGUGGCUGUGGCUAGACUGCCUCUCUUGAUUCCUCGUCACUCAGCAGGGCAUCUCUGAGAGAAAUGCC [U12G G105U],0.67
15,UACGUAGGUGGGUUUCCCCUGAUAGUGCUAAGGGGGCCUGGAAGUUUGGACUGGGCAGAGCUCAACACAGCGUGGCAAAGUGGCUGUGGCUAGACUGCCUCUCUGGAUUCCUCGUCACUCAGCAGGGCAUCUCUGGGAGAAAUGCC [U12G A136G],1.72
16,UACGUAGGUGGGUUUCCCCUGAUAGUGCUAAGGGGGCCUGGAAGUUUGGACUGGGCAGAGCUCAACACAGCGUGGCUAAGUGGCUGUGGCUAGACUGCCUCUCUGGAUUCCUCGUCACUCAGCAGGGCAUCUCUGAGAGAAAUGCC [U12G A77U],0.78
17,UACGUAGGUGGGUUUCCCCUGAUAGUGCUAAGGGGGCCUGGAAGUUUGGACUGGGCAGAGCUCAACACAGCGUGGCCAAGUGGCUGUGGCUAGACUGCCUCUCUGGAUUCCUCGUCACUCAGCAGGGCAUCUCUGAGAGAAAUGCC [U12G A77C],0.69
18,UACGUAGGUGGGUUUCCCCUGAUAGUGCUAAGGGGGCCUGGAAGUUUGGACUGGGCAGAGCUCAACACAGCGUGGCAAAGUGGCUGUGGCUAGACUGCCUCUCUGGAUUCCUCGUCACUCAGCAGGGCAUCUCUGAGAGAAAUGGC [U12G C145G],0.99
19,UACGUAGGUGGGUUUCCCCUGAUAGUGCUAAGGGGGCCUGGAAGUUUGGACUGGGCAGAGCUCAACGCAGCGUGGCAAAGUGGCUGUGGCUAGACUGCCUCUCUGGAUUCCUCGUCACUCAGCAGGGCAUCUCUGAGAGAAAUGCC [U12G A67G],0.53
20,UACGUAGGUGGGUUUCCCCUGAUAGUGCUAAGGGGGCCUGGAAGUUUGGACUGGGCAGAGCUCAACUCAGCGUGGCAAAGUGGCUGUGGCUAGACUGCCUCUCUGGAUUCCUCGUCACUCAGCAGGGCAUCUCUGAGAGAAAUGCC [U12G A67U],0.23

row,Variant,self-cleavage
1,UACGUAGGUGGGUUUCCCCUGAUAGUGCUAAGGGGGCCUGGAAGUUUGGACUGGGCAGAGCUCUACACAGCGUGGCAAAGUGGCUGUGGCUAGACUGCCUCUCUGGAUUCCUCGUCACUCAGCAGGGCAUCUCUGAGAGAAAUGCC [U12G A64U],0.83
2,UACGUAGGUGGGUUUCCCCUGAUAGUGCUAAGGGGGCCUGGAAGUUUGGACUGGGCAGGGCUCAACACAGCGUGGCAAAGUGGCUGUGGCUAGACUGCCUCUCUGGAUUCCUCGUCACUCAGCAGGGCAUCUCUGAGAGAAAUGCC [U12G A59G],0.23
3,UACGUAGGUGGGUUUCCCCUGAUAGUGCUAAGGGGGCCUGGAAGUUUGGACUGGGCAGAGCUCAACACAGCGUGGCAAAGUGGCUGUGGCUAGACUGCCUCUCUGGAUUCCUCGUCACUCAGCAGGGCUUCUCUGAGAGAAAUGCC [U12G A129U],1.49
4,UACGUAGGUGGGUUUCCCCUGAUAGUGCUAGGGGGGCCUGGAAGUUUGGACUGGGCAGAGCUCAACACAGCGUGGCAAAGUGGCUGUGGCUAGACUGCCUCUCUGGAUUCCUCGUCACUCAGCAGGGCAUCUCUGAGAGAAAUGCC [U12G A31G],0.87
5,UACGUAGGUGGGUUUCCCCUGAUAGUGCUAAGGGGGCCUGGAAGUUUGGACUGGGCAGAGCUCAACACAGCGUGGCAAAGUGGCUGUGGCUAGACUGCCUCUCUGGAUUCCUAGUCACUCAGCAGGGCAUCUCUGAGAGAAAUGCC [U12G C113A],1.84
6,UACGUAGGUGGGUUUCCCCUGAUAGUGCUAAGGGGGCCUGGAAGUUUGGACUGGGCAGAGCUCAACACAGCGUGGCAAAGUGGCUGUGACUAGACUGCCUCUCUGGAUUCCUCGUCACUCAGCAGGGCAUCUCUGAGAGAAAUGCC [U12G G89A],0.14
7,UACGUAGGUGGGUUUCCCCUGAUAGUGCUAAGGGGGCCUGGAAGUUUGGACUGAGCAGAGCUCAACACAGCGUGGCAAAGUGGCUGUGGCUAGACUGCCUCUCUGGAUUCCUCGUCACUCAGCAGGGCAUCUCUGAGAGAAAUGCC [U12G G54A],0.63
8,UACGUAGGUGGGUUUCCCCUGAUAGUGCUAAGGGGACCUGGAAGUUUGGACUGGGCAGAGCUCAACACAGCGUGGCAAAGUGGCUGUGGCUAGACUGCCUCUCUGGAUUCCUCGUCACUCAGCAGGGCAUCUCUGAGAGAAAUGCC [U12G G36A],0.22
9,UACGUAGGUGGGUUUCCCCUGAUAGUGCUAAGGGGGCCUGGAAGUUUGGACUGGGCAGAGCUCAACACAGCGUGGCAAAGUGGCUGUGGCUAGACUGCCUCUAUGGAUUCCUCGUCACUCAGCAGGGCAUCUCUGAGAGAAAUGCC [U12G C103A],1.15
10,UACGUAGGUGGGUUUCCCCUGAUAGUGCUAAGGUGGCCUGGAAGUUUGGACUGGGCAGAGCUCAACACAGCGUGGCAAAGUGGCUGUGGCUAGACUGCCUCUCUGGAUUCCUCGUCACUCAGCAGGGCAUCUCUGAGAGAAAUGCC [U12G G34U],2.48
11,UACGUAGGUGGGUUUCCCCUGAUAGUGCUAAGGGGGCCUGGAAGUUUGGACUGGGCAGAGCUCAGCACAGCGUGGCAAAGUGGCUGUGGCUAGACUGCCUCUCUGGAUUCCUCGUCACUCAGCAGGGCAUCUCUGAGAGAAAUGCC [U12G A65G],0.23
12,UACGUAGGUGGGUUUCCCCUGAUAGUGCUAAGGGGGCCUGGAAGUUUGGACUGGGCAGAGCUCAACACAGCGUGGCAAAGUGGCUGUGGCUAGACUGCAUCUCUGGAUUCCUCGUCACUCAGCAGGGCAUCUCUGAGAGAAAUGCC [U12G C99A],0.32
13,UACGUAGGUGGGUUUCCCCUGAUAGUGCUAAGGGGGCCUGGAAGUUUGGACUGGGCAGAGCUCAACACAGCGUGGCAAAGUGGCUGUGGCUAGACUGCCUCUCUGGAUUCCUCGUCACUCAGCAGGGCAUCUCUGAGAGAUAUGCC [U12G A141U],1.29
14,UACGUAGGUGGGUUUCCCCUGAUAGUGCUAAGGGGGCCUGGAAGUUUGGACUGGGCUGAGCUCAACACAGCGUGGCAAAGUGGCUGUGGCUAGACUGCCUCUCUGGAUUCCUCGUCACUCAGCAGGGCAUCUCUGAGAGAAAUGCC [U12G A57U],0.17
15,UACGUAGGUGGGUUUCCCCUGAUAGUGCUAAGGGGGCCUGGGAGUUUGGACUGGGCAGAGCUCAACACAGCGUGGCAAAGUGGCUGUGGCUAGACUGCCUCUCUGGAUUCCUCGUCACUCAGCAGGGCAUCUCUGAGAGAAAUGCC [U12G A42G],1.42
16,UACGUAGGUGGGUUUCCCCUGAUAGUGCUUAGGGGGCCUGGAAGUUUGGACUGGGCAGAGCUCAACACAGCGUGGCAAAGUGGCUGUGGCUAGACUGCCUCUCUGGAUUCCUCGUCACUCAGCAGGGCAUCUCUGAGAGAAAUGCC [U12G A30U],0.83
17,UACGUAGGUGGGUUUCCCCUGAUAGUGCUAAGGGGGCCUGGAAGUUUGGACUGGGCAGAGCUCAACACAGCGUGGCAAAGUGGCUGUGGUUAGACUGCCUCUCUGGAUUCCUCGUCACUCAGCAGGGCAUCUCUGAGAGAAAUGCC [U12G C90U],0.08
18,UACGUAGGUGGGUUUCCCCUGAUAGUGCUAAGGGGGCCUGGAAUUUUGGACUGGGCAGAGCUCAACACAGCGUGGCAAAGUGGCUGUGGCUAGACUGCCUCUCUGGAUUCCUCGUCACUCAGCAGGGCAUCUCUGAGAGAAAUGCC [U12G G44U],1.1
19,UACGUAGGUGGGUUUCCCCUGAUAGUGCUAACGGGGCCUGGAAGUUUGGACUGGGCAGAGCUCAACACAGCGUGGCAAAGUGGCUGUGGCUAGACUGCCUCUCUGGAUUCCUCGUCACUCAGCAGGGCAUCUCUGAGAGAAAUGCC [U12G G32C],1.04
